How the values were obtained:
[1] = molecular target: recombinant N-terminal protein of MUC5B (NT5B) (human) (UniProt Q9HC84); experiment: rate-zonal centrifugation on sucrose gradients; recombinant MUC5B sub-domain (NT5B, CT5B 400 μg/mL) incubated 1 h at 37 °C with 1 mM CsA, 5-20% (w/v) sucrose in PBS pH 7.4, 210,000 g, 15 °C, 2 h 30 min; protein detected by anti-His slot blot (NT5B, CT5B) or SDS-PAGE (Cys7)
[2] = molecular target: recombinant C-terminal protein of MUC5B (CT5B) (human); experiment: as above
[3] = molecular target: purified polymeric mucin MUC5B (human) (UniProt Q9HC84); experiment: rate-zonal centrifugation on sucrose gradients; purified polymeric mucin incubated 1 h at 37 °C with cyclic peptide (1 mM; CsA also 200 μM and 2 mM; MUC5B 100, 200 or 400 μg/mL), 10-35% (w/v) sucrose in PBS pH 7.4, 210,000 g, 15 °C, 1 h 15 min; mucin detected in fractions and pellet by slot blot; the peptide itself is not detected
[4] = molecular target: purified polymeric mucin MUC5AC (human) (UniProt P98088); experiment: as above
[5] = molecular target: purified polymeric mucin MUC2 (human) (UniProt Q02817); experiment: as above
[6] = molecular target: recombinant N-terminal protein of MUC5B (NT5B) (human) (UniProt Q9HC84); experiment: rate-zonal centrifugation on sucrose gradients; recombinant NT5B or CT5B with 200 μM CsA in PBS at pH 5.5, compared with pH 7.4; 5-20% (w/v) sucrose; detected by anti-His slot blot
[7] = molecular target: purified polymeric mucin MUC5B (human) (UniProt Q9HC84); experiment: rate-zonal centrifugation on sucrose gradients; purified MUC5B with 200 μM CsA in PBS at pH 5.5, compared with pH 7.4; 10-35% (w/v) sucrose; MUC5B detected by slot blot

percent of NT5B in the pellet (1 mM CsA) [1]: 16.3%
percent of CT5B in the pellet (1 mM CsA) [2]: 29.1%
percent of MUC5B in the pellet (1 mM CsA, MUC5B 100 μg/mL) [3]: 18.6%
percent of MUC5B in the pellet (1 mM CsA, MUC5B 200 μg/mL) [3]: 13.3%
percent of MUC5B in the pellet (2 mM CsA, MUC5B 200 μg/mL) [3]: 11.8%
percent of MUC5AC in the pellet (1 mM CsA) [4]: 8.2%
percent of MUC2 in the pellet (1 mM CsA) [5]: 14.6%
fold increase of NT5B in the pellet at pH 5.5 against pH 7.4 (200 μM CsA) [6]: 4.2 fold
fold increase of MUC5B in the pellet at pH 5.5 against pH 7.4 (200 μM CsA) [7]: 3.6 fold
Substance: cyclosporin A (peptide)

Source: article PMC9008041
